For one substance, binding signal (nm shift) results are on record in patent US20230348603A1.

The target in assay [1] is Human VSIG4-L-Fc (human). As to the kind of experiment: BLI cross-blocking on hVSIG4-L-Fc, competitor 12A12 first.
Assay [2] has as its target Human VSIG4-L-Fc (human). Briefly: BLI cross-blocking on hVSIG4-L-Fc, competitor 14C05 first.

Chain of Human VSIG4-L-Fc (human) (chain, as listed by the source limits assumed): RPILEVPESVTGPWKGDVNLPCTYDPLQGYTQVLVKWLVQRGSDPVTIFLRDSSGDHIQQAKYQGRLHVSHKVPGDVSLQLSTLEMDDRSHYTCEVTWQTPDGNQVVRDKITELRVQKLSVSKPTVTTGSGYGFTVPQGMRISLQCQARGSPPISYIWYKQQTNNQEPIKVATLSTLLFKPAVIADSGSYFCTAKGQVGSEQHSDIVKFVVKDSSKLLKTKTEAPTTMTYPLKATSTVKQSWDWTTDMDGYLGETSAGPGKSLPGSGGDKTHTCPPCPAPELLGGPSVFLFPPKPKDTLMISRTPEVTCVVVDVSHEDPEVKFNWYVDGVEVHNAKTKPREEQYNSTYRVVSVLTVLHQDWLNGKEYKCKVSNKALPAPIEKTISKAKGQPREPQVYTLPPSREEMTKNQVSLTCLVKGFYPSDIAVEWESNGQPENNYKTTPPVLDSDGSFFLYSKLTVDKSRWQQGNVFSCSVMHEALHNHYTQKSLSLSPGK

On to isotype control antibody (Table 16), for which the binding signal (nm shift) in the assay with Human VSIG4-L-Fc (human) [1] and with Human VSIG4-L-Fc (human) [2] was 0 nm each time.
